According to PMC4635203:

T1: LUZ24 gp4 (Mip) (Pseudomonas phage LUZ24) (UniProt A9J6U1)
T1 sequence: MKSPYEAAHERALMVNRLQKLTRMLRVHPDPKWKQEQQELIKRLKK

T2: MvaT-His (Pseudomonas aeruginosa (PAO1?)) (UniProt Q9HW86)
T2 sequence: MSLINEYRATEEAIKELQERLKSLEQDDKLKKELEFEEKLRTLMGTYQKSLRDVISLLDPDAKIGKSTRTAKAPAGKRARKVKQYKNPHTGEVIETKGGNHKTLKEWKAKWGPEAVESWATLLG

B1: MvaT (PA4315) prey fragment, amino acids 1-80 (domain or fragment)
chain: MSLINEYRATEEAIKELQERLKSLEQDDKLKKELEFEEKLRTLMGTYQKSLRDVISLLDPDAKIGKSTRTAKAPAGKRAR

Key:
[1] = target: T1, LUZ24 gp4 (Mip) (Pseudomonas phage LUZ24); test: EMSA
[2] = target: T2, MvaT-His (Pseudomonas aeruginosa (PAO1?)); test: EMSA
[3] = target: LUZ24 gp4 (yeast two-hybrid bait) (Pseudomonas aeruginosa phage LUZ24); test: two-hybrid; alpha-galactosidase activity of the yeast two-hybrid pairs, in milliunits per ml per cell, for a relative comparison of interaction strengths

Row | Molecule | binding [1] | binding [2] | α-Gal activity (milliunits per ml per cell) [3]
1 | CATGAGGCCAGGACGTTGTTCATGAAAACCGAATAATCGTTTCGAATGATGGTTTGCAATTATTAATGTCGAATGGAATGAATGTGCCATATCTCCATAAATAAAAAGGAAGTTTGTCCAATACTTGAGAAACTACTTTAAGAAGGTTTTGTCGGTAGAAAGCGATCAATC (double strand) [ptxS upstream region 150 bp] | no binding | binds | –
2 | B1 | – | – | 23.1
